Laboratory results reported in US8962819B2, “Anti-C5 alpha antibodies” (Adienne S.A., priority 2002, dated 2015).
“Also recorded” adds a separate entry of the source.

How the values were obtained:
[1] = system: binding of the TS-A12/22 antibody to C5; assay: Competitive ELISA on solid-phase C5 after pre-incubation of TS-A12/22 with peptide; parameters: species or system human; conditions: 800 ng CS5 or 3.5 μg C5a fragment; highest concentrations used
Protocol: Binding of the antibody, pre-incubated in different conditions, was assessed by immuno-enzymatic assay using C5 on solid phase.
This peptide corresponds to region 727-744 of the mature protein and comprises the cleavage site of C5 convertase (indicated by the arrow) between […] according to SwissProt numbering for human C5 (SEQ ID P01031). The peptide was used in a competitive ELISA assay on the C5 protein on solid phase. Before binding to the solid phase, the TS-A12/22 antibody was pre-incubated with the PSA-18 peptide, corresponding to amino acids 727-744 of the C5 component, or with an unrelated peptide of sequence […] (SEQ ID NO:16 of sequence listing) corresponding to a fibronectin derived peptide termed CS5.

C5 [2] = target: T1, C5 (Homo sapiens, UniProt P01031); assay: Haemolytic assay / TCC ELISA with EAC1-3b sheep erythrocytes and C5 depleted serum; format: biochemical; conditions: FIG. 1B
T1 construct: C5 alpha and beta subunits were obtained by incubating 50 μg of C5; purchased Quidel
Protocol: (§1) Panel A) The ELISA assay measures the amount of C5a fragment released in the supernatant after enzymatic cleavage of C5, using antibodies anti-C5 as described in example 6. […] Sheep erythrocytes sensitised with antibodies and coated until the C3b (EAC1-3b) complement step were added to the mixture of TS-A12 or TS-A12/22 and C5, and the mixture was further incubated for 30 minutes at 37° C. (panel B).
Sheep erythrocytes (SBRC: Sheep red blood cells) were sensitised with sub-agglutinating amounts of rabbit IgM (EA). […]
(§2) The obtained anti-C5 scFv fragments were further characterised for their ability to inhibit the hemolytic activity of C5 or, in other words, to block conversion of the C5 component to C5a. […] At the end of this procedure, cell lysis was measured as percentage of the control of total lysis in distilled H2O (see FIG. 1, panel B). The inhibition of C5a and TCC production by the scFv TS-A12 and TS-A12/22 was measured by means of ELISA using the monoclonal antibody 17/5 as the capture antibody and antibody G25/2 as detection antibody according to what has been described in Opperman et al., 1991, Complement Inflamm. […] The presence of TCC was measured using antibody aE11 as the capture antibody and a biotinylated anti-C5 antibody (SIGMA-ALDRICH®) followed by alkaline phosphatase-conjugated streptavidin, as described by Tedesco et al. (1997, J Exp. Med. 185:1619).

factor C5 = target: T2, factor C5 (Homo sapiens, UniProt P01031); assay: Surface plasmon resonance (BIACORE 2000) on C5 immobilized on chip; format: binding; conditions: read-out: KD calculated
T2 construct: C5 alpha and beta subunits were obtained by incubating 50 μg of C5; purchased Quidel
Protocol: The binding affinity of the Tsa-12 antibody, purified by means of FPLC on Superdex 75 (Pharmacia), for factor C5 was measured by means of BIACORE™ 2000 (a system that generates unique data on the interactions between proteins and other molecules). The microchip (CM5, Biacore) was prepared by direct conjugation of the C5 antigen with amines (20 μg/ml in 10 mM Sodium Acetate pH 4.5). The final level of immobilisation turned out to be approximately 1000 RU (Resonance Units). Association and dissociation of antibody molecules from the bio-chip were measured using an optical detection system (Surface Plasmon Resonance). The analysis was carried out at 25° C., at a flow of 15 μl/min, using 4 different scFv concentrations in the range comprised between 100-300 nM, in PBS, 0.005% P20 (Biacore). The binding curves were interpolated 1:1 according to the model of Langmuir, using the dedicated software termed BIAevaluation (version 3.5) with correction for the mass transfer. In order to increase the affinity, the TS-A12 antibody was subjected to substitution (“shuffling”) of the VL light chains. For this purpose the phagemid DNA was cut with BssHII and SaII to excise the VL region. This region was substituted with all the repertoire of VL chains of a preimmune library (Sblattero, D., and Bradbury A., 2000, Nat. Biotechnol. 18:75) that was prepared with same enzymes. […]

C5 [3] = target: T1, C5; assay: ELISA of C5a released after cleavage of C5 by C5 convertase; format: biochemical; conditions: FIG. 1A, classical pathway
Protocol: as §1, §2

Chain of binding of the TS-A12/22 antibody to C5 (P01031 678-1676 partner limits assumed, one chain of several): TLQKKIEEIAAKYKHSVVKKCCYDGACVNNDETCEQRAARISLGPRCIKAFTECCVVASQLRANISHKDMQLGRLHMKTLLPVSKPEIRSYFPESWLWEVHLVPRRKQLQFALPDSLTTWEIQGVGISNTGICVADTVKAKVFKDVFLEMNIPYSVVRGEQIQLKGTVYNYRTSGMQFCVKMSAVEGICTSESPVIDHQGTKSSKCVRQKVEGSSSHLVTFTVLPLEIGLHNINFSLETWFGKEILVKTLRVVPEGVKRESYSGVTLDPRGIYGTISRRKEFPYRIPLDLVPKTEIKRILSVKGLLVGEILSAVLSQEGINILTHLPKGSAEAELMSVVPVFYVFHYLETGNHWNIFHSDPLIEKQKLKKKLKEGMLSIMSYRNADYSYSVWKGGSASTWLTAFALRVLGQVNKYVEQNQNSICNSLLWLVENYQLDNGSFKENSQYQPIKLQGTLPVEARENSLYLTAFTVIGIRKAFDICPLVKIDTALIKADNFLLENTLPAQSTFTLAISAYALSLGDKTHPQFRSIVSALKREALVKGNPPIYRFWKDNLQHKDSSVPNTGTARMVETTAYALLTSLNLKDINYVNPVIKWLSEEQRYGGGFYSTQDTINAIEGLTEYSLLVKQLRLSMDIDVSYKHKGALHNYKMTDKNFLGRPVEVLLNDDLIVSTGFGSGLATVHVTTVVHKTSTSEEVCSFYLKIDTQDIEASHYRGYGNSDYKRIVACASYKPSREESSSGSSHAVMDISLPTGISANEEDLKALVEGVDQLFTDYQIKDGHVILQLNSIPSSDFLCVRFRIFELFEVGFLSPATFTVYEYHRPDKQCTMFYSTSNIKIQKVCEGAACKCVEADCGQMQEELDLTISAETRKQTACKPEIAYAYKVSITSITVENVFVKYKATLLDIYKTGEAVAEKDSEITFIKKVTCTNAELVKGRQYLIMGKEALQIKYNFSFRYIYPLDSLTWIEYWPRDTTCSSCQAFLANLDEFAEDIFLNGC
Chain of binding of the TS-A12/22 antibody to C5 (P01031 19-673 partner limits assumed, one chain of several): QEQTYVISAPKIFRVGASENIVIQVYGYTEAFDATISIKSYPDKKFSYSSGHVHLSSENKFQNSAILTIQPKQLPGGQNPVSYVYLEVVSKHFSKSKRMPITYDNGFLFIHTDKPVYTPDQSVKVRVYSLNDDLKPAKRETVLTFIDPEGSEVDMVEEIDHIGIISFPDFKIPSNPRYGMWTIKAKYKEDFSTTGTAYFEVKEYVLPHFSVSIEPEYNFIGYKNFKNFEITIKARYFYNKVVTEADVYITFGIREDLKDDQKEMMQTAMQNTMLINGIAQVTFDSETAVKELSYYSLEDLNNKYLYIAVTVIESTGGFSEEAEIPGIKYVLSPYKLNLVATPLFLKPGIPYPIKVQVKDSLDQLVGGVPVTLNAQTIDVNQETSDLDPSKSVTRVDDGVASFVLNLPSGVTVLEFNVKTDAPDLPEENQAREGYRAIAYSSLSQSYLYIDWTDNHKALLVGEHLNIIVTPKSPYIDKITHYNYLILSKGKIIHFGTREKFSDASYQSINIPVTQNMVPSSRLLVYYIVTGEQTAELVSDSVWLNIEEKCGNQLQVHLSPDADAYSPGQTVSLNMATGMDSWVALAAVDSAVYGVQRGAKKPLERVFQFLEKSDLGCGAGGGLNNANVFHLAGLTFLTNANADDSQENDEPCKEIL
T1 sequence (P01031 678-1676 limits assumed): as the sequence (P01031 678-1676 partner limits assumed, one chain of several) above
T1 sequence (P01031 19-673 partner limits assumed): as the sequence (P01031 19-673 partner limits assumed, one chain of several) above
T2 sequence (P01031 678-1676 limits assumed): as the sequence (P01031 678-1676 partner limits assumed, one chain of several) above
T2 sequence (P01031 19-673 partner limits assumed): as the sequence (P01031 19-673 partner limits assumed, one chain of several) above

| Molecule | inhibition of binding of TS-A12/22 to C5 (in words) [1] | inhibition of formation of TCC (C5 [2]) | Kd (factor C5) | inhibition of formation of C5a (C5 [3]) |
| --- | --- | --- | --- | --- |
| GEEIQIGHIPREDVDYHLYP (PEPTIDE (1)..(20) fibronectin derived peptide; listed as Homo sapiens) [CS5, unrelated fibronectin derived peptide] | ineffective; also recorded: NO inhibition | – | – | – |
| C5A: C5a fragment; human recombinant C5a component purchased from SIGMA-ALDRICH (protein, UniProt P01031 678-751, looked up, C5a anaphylatoxin, C5a fragment; human recombinant C5a component purchased from SIGMA-ALDRICH) C5a anaphylatoxin: TLQKKIEEIAAKYKHSVVKKCCYDGACVNNDETCEQRAARISLGPRCIKAFTECCVVASQLRANISHKDMQLGR | NO inhibition | – | – | – |
| TS-A12: human anti-C5 single chain scFv antibody clone selected from a naive phage library (protein, listed as Homo sapiens) scFv: DIRMTQSPDSLAVSLGERATINCKSSQSVLYSSNNKNYLAWYQQKPGQPPKLLIYWASTRESGVPDRFSGSGSGTDFTLTISSLQAEDVAVYYCQQYYSTPQLTFGGRTKVDIKSGGSTITSYNVYYTKLSSSGTQVQLQQSEGGVVQPGRSLRLSCAASGFTFSSYGMNWVRQAPGKGLEWVSYISSSSSTIYYADSVKGRFTISRDNSKNTLYLQMNSLRAEDTAVYYCARGPGMDVWGQGTTVTVSS | – | inhibit almost completely | 200 nM | inhibit almost completely |
